Measurements taken from the RNAGym collection of RNA variant scans (doi:10.1093/nar/gkz1192).

B1: CPEB3 Ribozyme (parent)
chain: UAACAGGGGGCCACAGCAGAAGCGUUCACGUCGCAGCCCCUGUCAGAUUCUGGUGAAUCUGCGAAUUCUGCUGUAUAUCUC

Variants of: B1
Test: self-cleavage, relative activity (ratio to wild type); higher = more cleavage; in vitro, sequencing
Procedure, shortened: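 Relative activity was defined as the cleaved/total read fraction for a variant divided by the same fraction for the unmutated ribozyme. CPEB3 self-cleaving ribozyme libraries were made by rounds of error-prone PCR, barcoded, and transcribed in vitro with T7 RNA polymerase for 5 hours at 37°C, and cleavage ran through transcription plus a 15 min DNase I step before EDTA. Illumina sequencing of template-switched reverse transcripts gave the reads, and DNA sequencing mapped the barcodes. Averages come from three batches, using variants with at least 5 reads.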

Row | Variant | self-cleavage
1 | UAACAGGGGGCCACAGCAGAAGCGUUCACGUCGCAGCCACUGUCGGAUUCUGGUGAAUCUGCGAAUUCUGCUGUAUAUCUC | 0.33
2 | UAACAGGGGGCCACAGCAGAAGCGUUCACGUCGCAGCCACUGUCAGCUUCUGGUGAAUCUGCGAAUUCUGCUGUAUAUCUC | 0.2
3 | UAACAGGGGGCCACAGCAGAAGCGUUCACGUCGCAGCCACUGUCAGGUUCUGGUGAAUCUGCGAAUUCUGCUGUAUAUCUC | 0.35
4 | UAACAGGGGGCCACAGCAGAAGCGUUCACGUCGCAGCCACUGUCAGAUUCUGGUGGAUCUGCGAAUUCUGCUGUAUAUCUC | 0.26
5 | UAACAGGGGGCCACAGCAGAAGCGUUCACGUCGCAGCCACUGUCAGAUUCUGGUGUAUCUGCGAAUUCUGCUGUAUAUCUC | 0.09
6 | UAACAGGGGGCCACAGCAGAAGCGUUCACGUCGCAGCCACUGUCAGAUUCUGGUGACUCUGCGAAUUCUGCUGUAUAUCUC | 0.14
7 | UAACAGGGGGCCACAGCAGAAGCGUUCACGUCGCAGCCACUGUCAGAUUCUGGUGAGUCUGCGAAUUCUGCUGUAUAUCUC | 0.3
8 | UAACAGGGGGCCACAGCAGAAGCGUUCACGUCGCAGCCACUGUCAGAUUCUGGUGAAUCUGCGGAUUCUGCUGUAUAUCUC | 0.05
9 | UAACAGGGGGCCACAGCAGAAGCGUUCACGUCGCAGCCACUGUCAGAUUCUGGUGAAUCUGCGUAUUCUGCUGUAUAUCUC | 0.22
10 | UAACAGGGGGCCACAGCAGAAGCGUUCACGUCGCAGCCACUGUCAGAUUCUGGUGAAUCUGCGAGUUCUGCUGUAUAUCUC | 0.11
11 | UAACAGGGGGCCACAGCAGAAGCGUUCACGUCGCAGCCACUGUCAGAUUCUGGUGAAUCUGCGAAUUCUGCUGUAUGUCUC | 0.22
12 | UAACAGGGGGCCACAGCAGAAGCGUUCACGUCGCAGCCACUGUCAGAUUCUGGUGAAUCUGCGAAUUCUGCUGUAUUUCUC | 0.32
13 | UAACAGGGGGCCACAGCAGAAGCGUUCACGUCGCAGCCAUUGUCAGAUUCUGGUGAAUCUGCGAAUUCUGCUGUAUAUCUC | 0.38
14 | UAACAGGGGGCCACAGCAGAAGCGUUCACGUCGCAGCCACUGUCAGAUUCUGGUGAAUCUGCGAAUUGUGCUGUAUAUCUC | 0.17
15 | UAACAGGGGGCCACAGCAGAAGCGUUCACGUCGCAGCCACUGUCAGAUUCUGGUGAAUCUGCGAAUUCUGUUGUAUAUCUC | 0.11
16 | UAACAGGGGGCCACAGCAGAAGCGUUCACGUCGCAGCCACUGUCAGAUUCUGGUGAAUCUGCGAAUUCUGCUGUAUAUCUG | 0.16
17 | UAACAGGGGGCCACAGCAGAAGCGUUCACGUCGCAGCCACUGUCAGAUUCUGGUGAAUCUGCGAAUUCUACUGUAUAUCUC | 0.11
18 | UAACAGGGGGCCACAGCAGAAGCGUUCACGUCGCAGCCACUGUCAGAUUCUGGUGAAUCUGCGAAUUCUGCUCUAUAUCUC | 0.76
19 | UAACAGGGGGCCACAGCAGAAGCGUUCACGUCGCAGCCACAGUCAGAUUCUGGUGAAUCUGCGAAUUCUGCUGUAUAUCUC | 0.27
20 | UAACAGGGGGCCACAGCAGAAGCGUUCACGUCGCAGCCACCGUCAGAUUCUGGUGAAUCUGCGAAUUCUGCUGUAUAUCUC | 0.35
21 | UAACAGGGGGCCACAGCAGAAGCGUUCACGUCGCAGCCACUGACAGAUUCUGGUGAAUCUGCGAAUUCUGCUGUAUAUCUC | 0.38
22 | UAACAGGGGGCCACAGCAGAAGCGUUCACGUCGCAGCCACUGCCAGAUUCUGGUGAAUCUGCGAAUUCUGCUGUAUAUCUC | 0.4
23 | UAACAGGGGGCCACAGCAGAAGCGUUCACGUCGCAGCCACUGUCAGAAUCUGGUGAAUCUGCGAAUUCUGCUGUAUAUCUC | 0.21

Row | Variant | self-cleavage
24 | UAACAGGGGGCCACAGCAGAAGCGUUCACGUCGCAGCCACUGUCAGACUCUGGUGAAUCUGCGAAUUCUGCUGUAUAUCUC | 0.12
25 | UAACAGGGGGCCACAGCAGAAGCGUUCACGUCGCAGCCACUGUCAGAUACUGGUGAAUCUGCGAAUUCUGCUGUAUAUCUC | 0.23
26 | UAACAGGGGGCCACAGCAGAAGCGUUCACGUCGCAGCCACUGUCAGAUUCCGGUGAAUCUGCGAAUUCUGCUGUAUAUCUC | 0.34
27 | UAACAGGGGGCCACAGCAGAAGCGUUCACGUCGCAGCCACUGUCAGAUUCUGGAGAAUCUGCGAAUUCUGCUGUAUAUCUC | 0.16
28 | UAACAGGGGGCCACAGCAGAAGCGUUCACGUCGCAGCCACUGUCAGAUUCUGGCGAAUCUGCGAAUUCUGCUGUAUAUCUC | 0.25
29 | UAACAGGGGGCCACAGCAGAAGCGUUCACGUCGCAGCCACUGUCAGAUUCUGGUGAACCUGCGAAUUCUGCUGUAUAUCUC | 0.19
30 | UAACAGGGGGCCACAGCAGAAGCGUUCACGUCGCAGCCACUGUCAGAUUCUGGUGAAUCAGCGAAUUCUGCUGUAUAUCUC | 0.18
31 | UAACAGGGGGCCACAGCAGAAGCGUUCACGUCGCAGCCACUGUCAGAUUCUGGUGAAUCCGCGAAUUCUGCUGUAUAUCUC | 0.13
32 | UAACAGGGGGCCACAGCAGAAGCGUUCACGUCGCAGCCACUGUCAGAUUCUGGUGAAUCGGCGAAUUCUGCUGUAUAUCUC | 0.09
33 | UAACAGGGGGCCACAGCAGAAGCGUUCACGUCGCAGCCACUGUCAGAUUCUGGUGAAUCUGCGAACUCUGCUGUAUAUCUC | 0.39
34 | UAACAGGGGGCCACAGCAGAAGCGUUCACGUCGCAGCCACUGUCAGAUUCUGGUGAAUCUGCGAAUACUGCUGUAUAUCUC | 0.34
35 | UAACAGGGGGCCACAGCAGAAGCGUUCACGUCGCAGCCACUGUCAGAUUCUGGUGAAUCUGCGAAUCCUGCUGUAUAUCUC | 0.16
36 | UAACAGGGGGCCACAGCAGAAGCGUUCACGUCGCAGCCACUGUCAGAUUCUGGUGAAUCUGCGAAUUCAGCUGUAUAUCUC | 0.22
37 | UAACAGGGGGCCACAGCAGAAGCGUUCACGUCGCAGCCACUGUCAGAUUCUGGUGAAUCUGCGAAUUCCGCUGUAUAUCUC | 0.16
38 | UAACAGGGGGCCACAGCAGAAGCGUUCACGUCGCAGCCACUGUCAGAUUCUGGUGAAUCUGCGAAUUCGGCUGUAUAUCUC | 0.14
39 | UAACAGGGGGCCACAGCAGAAGCGUUCACGUCGCAGCCACUGUCAGAUUCUGGUGAAUCUGCGAAUUCUGCAGUAUAUCUC | 0.35
40 | UAACAGGGGGCCACAGCAGAAGCGUUCACGUCGCAGCCACUGUCAGAUUCUGGUGAAUCUGCGAAUUCUGCCGUAUAUCUC | 0.32
41 | UAACAGGGGGCCACAGCAGAAGCGUUCACGUCGCAGCCACUGUCAGAUUCUGGUGAAUCUGCGAAUUCUGCUGAAUAUCUC | 0.53
42 | UAACAGGGGGCCACAGCAGAAGCGUUCACGUCGCAGCCACUGUCAGAUUCUGGUGAAUCUGCGAAUUCUGCUGCAUAUCUC | 0.49
43 | UAACAGGGGGCCACAGCAGAAGCGUUCACGUCGCAGCCACUGUCAGAUUCUGGUGAAUCUGCGAAUUCUGCUGUAUAACUC | 0.43
44 | UAACAGGGGGCCACAGCAGAAGCGUUCACGUCGCAGCCACUGUCAGAUUCUGGUGAAUCUGCGAAUUCUGCUGUAUACCUC | 0.26
45 | UAACAGGGGGCCACAGCAGAAGCGUUCACGUCGCAGCCACUGUCAGAUUCUGGUGAAUCUGCGAAUUCUGCUGUAUAUCAC | 0.3
46 | UAACAGGGGGCCACAGCAGAAGCGUUCACGUCGCAGCCACUGUCAGAUUCUGGUGAAUCUGCGAAUUCUGCUGUAUAUCCC | 0.26

Row | Variant | self-cleavage
47 | UAACAGGGGGCCACAGCAGAAGCGUUCACGUCGCAGCCGCUGUCAGAUUCUGGUGAAUCUGCGAAUUCUGCUGUAUAUCUC | 0.3
48 | UAACAGGGGGCCACAGCAGAAGCGUUCACGUCGCAGCCGCUGUCGGAUUCUGGUGAAUCUGCGAAUUCUGCUGUAUAUCUC | 0.29
49 | UAACAGGGGGCCACAGCAGAAGCGUUCACGUCGCAGCCGCUGUCAGGUUCUGGUGAAUCUGCGAAUUCUGCUGUAUAUCUC | 0.13
50 | UAACAGGGGGCCACAGCAGAAGCGUUCACGUCGCAGCCGCUGUCAGAUUCUGGUGAGUCUGCGAAUUCUGCUGUAUAUCUC | 0.19
51 | UAACAGGGGGCCACAGCAGAAGCGUUCACGUCGCAGCCGCUGUCAGAUUCUGGUGAAUCUGCGCAUUCUGCUGUAUAUCUC | 0.17
52 | UAACAGGGGGCCACAGCAGAAGCGUUCACGUCGCAGCCGCUGUCAGAUUCUGGUGAAUCUGCGGAUUCUGCUGUAUAUCUC | 0.38
53 | UAACAGGGGGCCACAGCAGAAGCGUUCACGUCGCAGCCGCUGUCAGAUUCUGGUGAAUCUGCGUAUUCUGCUGUAUAUCUC | 0.35
54 | UAACAGGGGGCCACAGCAGAAGCGUUCACGUCGCAGCCGCUGUCAGAUUCUGGUGAAUCUGCGAGUUCUGCUGUAUAUCUC | 0.17
55 | UAACAGGGGGCCACAGCAGAAGCGUUCACGUCGCAGCCGCUGUCAGAUUGUGGUGAAUCUGCGAAUUCUGCUGUAUAUCUC | 0.1
56 | UAACAGGGGGCCACAGCAGAAGCGUUCACGUCGCAGCCGCUGUCAGAUUCUGGUGAAUCUGUGAAUUCUGCUGUAUAUCUC | 0.08
57 | UAACAGGGGGCCACAGCAGAAGCGUUCACGUCGCAGCCGCUGUCAGAUUCUGGUGAAUCUGCGAAUUCUACUGUAUAUCUC | 0.15
58 | UAACAGGGGGCCACAGCAGAAGCGUUCACGUCGCAGCCGCAGUCAGAUUCUGGUGAAUCUGCGAAUUCUGCUGUAUAUCUC | 0.21
59 | UAACAGGGGGCCACAGCAGAAGCGUUCACGUCGCAGCCGCGGUCAGAUUCUGGUGAAUCUGCGAAUUCUGCUGUAUAUCUC | 0.13
60 | UAACAGGGGGCCACAGCAGAAGCGUUCACGUCGCAGCCGCUGUCAGAAUCUGGUGAAUCUGCGAAUUCUGCUGUAUAUCUC | 0.15
61 | UAACAGGGGGCCACAGCAGAAGCGUUCACGUCGCAGCCGCUGUCAGAUCCUGGUGAAUCUGCGAAUUCUGCUGUAUAUCUC | 0.12
62 | UAACAGGGGGCCACAGCAGAAGCGUUCACGUCGCAGCCGCUGUCAGAUUCUGGUGAAUCAGCGAAUUCUGCUGUAUAUCUC | 0.25
63 | UAACAGGGGGCCACAGCAGAAGCGUUCACGUCGCAGCCGCUGUCAGAUUCUGGUGAAUCUGCGAAUUCUGCCGUAUAUCUC | 0.3
64 | UAACAGGGGGCCACAGCAGAAGCGUUCACGUCGCAGCCGCUGUCAGAUUCUGGUGAAUCUGCGAAUUCUGCUGUAUAUCAC | 0.09
65 | UAACAGGGGGCCACAGCAGAAGCGUUCACGUCGCAGCCUCUGUCAGAUUCUGGUGAAUCUGCGAAUUCUGCUGUAUAUCUC | 0.91
66 | UAACAGGGGGCCACAGCAGAAGCGUUCACGUCGCAGCCUCUGUCGGAUUCUGGUGAAUCUGCGAAUUCUGCUGUAUAUCUC | 0.69
67 | UAACAGGGGGCCACAGCAGAAGCGUUCACGUCGCAGCCUCUGUCUGAUUCUGGUGAAUCUGCGAAUUCUGCUGUAUAUCUC | 0.26
68 | UAACAGGGGGCCACAGCAGAAGCGUUCACGUCGCAGCCUCUGUCAGGUUCUGGUGAAUCUGCGAAUUCUGCUGUAUAUCUC | 0.48
